Source: PMC2018723

Molecular target: viral nucleoprotein complex (HIV-1) (HIV-1 (pNL4-3))
Assay: co-sedimentation; concentrated vif-defective HIV-1 virions from transfected HeLa cells loaded on a 20%/60% sucrose step gradient overlaid with 100 ul of 1% Triton X-100 (results: 0.1% Triton X-100) or PBS; SW55Ti, 60 min, 35,000 rpm, 4°C; fractions S1-S3 immunoblotted for APOBEC, CA, NC, MA

Substance: APOBEC3G (from UniProt Q9HC16 1-384) (enzyme)
- percent of virus-associated A3G copurifying with viral NPCs: > 70%
